± gives the uncertainty stated by the source.

The results in this text go back to the supplement of paper PMC7877785.

This series in a line: self-splicing fitness, log relative to wild type (ln ratio); higher = more splicing; Tetrahymena group I intron in knt gene, E. coli kanamycin selection, DiMSum; sequences stand for … in CUCUCU…GGAGGGAAAAGUUAUCAGGCAUGCACCUGGUAGCUAGUCUUUAAACCAAUAGAUUGCAUCGGUUUAAAAGGCAAGACCGUCAAAUUGCGGGAAAGGGGUCAACAGCCGUUCAGUACCAAGUCUCAGGGGAAACUUUGAGAUGGCCUUGCAAAGGGUAUGGUAAUAAGCUGACGGACAUGGUCCUAACCACGCAGCCAAGUCCUAAGUCAACAGAUCUUCUGUUGAUAUGGAUGCAGUUCACAGACUAAAUGUCGGUCGGGGAAGAUGUAUUCUUCUCAUAAGAUAUAGUCGGACCUCUCCUUAAUGGGAGCUAGCGGAUGAAGUGAUGCAACACUGGAGCCGCUGGGAACUAAUUUGUAUGCGAAAGUAUAUUGAUUAGUUUUGGAGUACUCGUGGUCG
The procedure, abridged: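 Library with all eight P1ex-region intron nucleotides randomised, intron inside the knt kanamycin-resistance gene on pET-22b(+), in E. coli BL21(DE3). Cells grew overnight at 37°C or 30°C on LB agar with or without 25 μg/mL kanamycin (plus 100 μg/mL carbenicillin, 50 μM IPTG, 0.2% rhamnose), in six replicate transformations. Pooled colonies were amplicon-sequenced on Illumina HiSeq 2500. DiMSum fitness is the error-weighted combination of wild-type-normalised replicate fold changes, kanamycin versus none.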

For the sequence ACUAAGCAAUAUUACGAAAG, the “self-splicing fitness (ln)” value is, setting by setting: (30 °C) -1.76 ± 0.14; (37 °C) -1.55 ± 0.16.
Turning to ACUAAGCAAUAUUACGAACC, the “self-splicing fitness (ln)” value (30 °C) was -0.514 ± 0.16 and the “self-splicing fitness (ln)” value (37 °C) is -1.24 ± 0.24.
On the same counts, the results for ACUAAGCAAUAUUACGACUC are -0.352 ± 0.12 and 0.402 ± 0.14.
For the sequence ACUAAGCAAUAUUACGAUCC, the “self-splicing fitness (ln)” value runs as follows: (30 °C) -1.02 ± 0.14; (37 °C) -0.609 ± 0.16.
The like results for ACUAAGCAAUAUUACGAUGU were, in that order, -1.62 ± 0.1 and -1.38 ± 0.13.
With ACUAAGCAAUAUUACGAUUG, the “self-splicing fitness (ln)” value was -2.62 ± 0.13 (30 °C) and -1.5 ± 0.14 (37 °C).
For ACUAAGCAAUAUUACGCAGC, the “self-splicing fitness (ln)” value was -2.94 ± 0.36 (30 °C) and -0.621 ± 0.18 (37 °C).
With ACUAAGCAAUAUUACGCCGC, the “self-splicing fitness (ln)” value is, setting by setting: (30 °C) -3.02 ± 0.35; (37 °C) -1.86 ± 0.41.
Regarding ACUAAGCAAUAUUACGCCUU, the “self-splicing fitness (ln)” value is, setting by setting: (30 °C) -1.09 ± 0.082; (37 °C) -0.381 ± 0.11.
The like results for ACUAAGCAAUAUUACGCGUA were, in that order, -1.2 ± 0.11 and -0.501 ± 0.13.
For the sequence ACUAAGCAAUAUUACGGAUG, the “self-splicing fitness (ln)” value is, setting by setting: (30 °C) -2.49 ± 0.12; (37 °C) -1.42 ± 0.13.
On the same counts, the results for ACUAAGCAAUAUUACGGCUC are -0.0701 ± 0.093 and 0.329 ± 0.11.
The like results for ACUAAGCAAUAUUACGGUGG were, in that order, -3.1 ± 0.11 and -2.84 ± 0.16.
The like results for ACUAAGCAAUAUUACGUAAA were, in that order, -2.48 ± 0.13 and -1.6 ± 0.14.
As to ACUAAGCAAUAUUACGUACC, the “self-splicing fitness (ln)” value is, setting by setting: (30 °C) -1.05 ± 0.16; (37 °C) -0.715 ± 0.2.
On the same counts, the results for ACUAAGCAAUAUUACGUAGA are -3.25 ± 0.12 and -1.28 ± 0.1.
Consider ACUAAGCAAUAUUACGUCUC, for which the “self-splicing fitness (ln)” value is -2.79 ± 0.16 (30 °C) and -0.208 ± 0.14 (37 °C).
On the same counts, the results for ACUAAGCAAUAUUACGUUAC are -3.81 ± 0.2 and -3.08 ± 0.3.
For ACUAAGCAAUAUUACGUUCU, the “self-splicing fitness (ln)” value (30 °C) is -0.391 ± 0.071 and the “self-splicing fitness (ln)” value (37 °C) was -0.412 ± 0.094.
The like results for ACUAAGCAAUAUUACGUUGC were, in that order, -3.69 ± 0.27 and -2.77 ± 0.22.
As for ACUCAGCAAUAUUACGAUUC, the “self-splicing fitness (ln)” value runs as follows: (30 °C) -1.63 ± 0.087; (37 °C) -0.302 ± 0.1.
For ACUCAGCAAUAUUACGCAAU, the “self-splicing fitness (ln)” value reads like this: (30 °C) -1.37 ± 0.078; (37 °C) -0.643 ± 0.093.
On the same counts, the results for ACUCAGCAAUAUUACGCACC are -1.19 ± 0.094 and 0.495 ± 0.11.
The like results for ACUCAGCAAUAUUACGCAGG were, in that order, -1.99 ± 0.11 and -1.35 ± 0.13.
Take ACUCAGCAAUAUUACGCCCG: the “self-splicing fitness (ln)” value reads like this: (30 °C) -1.62 ± 0.14; (37 °C) -0.599 ± 0.18.
On the same counts, the results for ACUCAGCAAUAUUACGCCGG are -0.85 ± 0.074 and -0.683 ± 0.092.
On the same counts, the results for ACUCAGCAAUAUUACGCUAA are -1.63 ± 0.1 and -0.781 ± 0.1.
Take ACUCAGCAAUAUUACGGAAU: the “self-splicing fitness (ln)” value is, setting by setting: (30 °C) -1.75 ± 0.084; (37 °C) -0.549 ± 0.11.
In the case of ACUCAGCAAUAUUACGGACG, the “self-splicing fitness (ln)” value reads like this: (30 °C) -0.251 ± 0.069; (37 °C) -0.156 ± 0.09.
The like results for ACUCAGCAAUAUUACGGAGC were, in that order, -3.55 ± 0.21 and -1.76 ± 0.17.
On the same counts, the results for ACUCAGCAAUAUUACGGCUG are -2.36 ± 0.21 and -2.86 ± 0.29.
The like results for ACUCAGCAAUAUUACGGGAA were, in that order, -0.98 ± 0.088 and -0.568 ± 0.095.
As for ACUCAGCAAUAUUACGGGCA, the “self-splicing fitness (ln)” value was -0.259 ± 0.063 (30 °C) and 0.203 ± 0.084 (37 °C).
In the case of ACUCAGCAAUAUUACGGGGA, the “self-splicing fitness (ln)” value reads like this: (30 °C) -1.24 ± 0.074; (37 °C) -0.173 ± 0.082.
The like results for ACUCAGCAAUAUUACGGGGG were, in that order, -1.68 ± 0.11 and -1.45 ± 0.14.
The like results for ACUCAGCAAUAUUACGGGGU were, in that order, -3.84 ± 0.19 and -2.84 ± 0.2.
On the same counts, the results for ACUCAGCAAUAUUACGGGUC are -2.95 ± 0.16 and -2.2 ± 0.17.
ACUCAGCAAUAUUACGGGUG: the “self-splicing fitness (ln)” value (30 °C) is -1.42 ± 0.063 and the “self-splicing fitness (ln)” value (37 °C) was -0.563 ± 0.077.
The like results for ACUCAGCAAUAUUACGGUCU were, in that order, -0.745 ± 0.057 and 0.311 ± 0.079.
On the same counts, the results for ACUCAGCAAUAUUACGGUGC are -1.69 ± 0.07 and -0.59 ± 0.082.
Regarding ACUCAGCAAUAUUACGUACU, the “self-splicing fitness (ln)” value (30 °C) is -0.824 ± 0.056 and the “self-splicing fitness (ln)” value (37 °C) is -0.927 ± 0.063.
The like results for ACUCAGCAAUAUUACGUAGG were, in that order, -0.866 ± 0.06 and -0.368 ± 0.092.
The like results for ACUCAGCAAUAUUACGUCCA were, in that order, -0.69 ± 0.084 and -1.36 ± 0.11.
The like results for ACUCAGCAAUAUUACGUGCU were, in that order, -2.27 ± 0.082 and -2.53 ± 0.11.
Turning to ACUCAGCAAUAUUACGUGUG, the “self-splicing fitness (ln)” value is -1.39 ± 0.061 (30 °C) and -1.3 ± 0.072 (37 °C).
As for ACUCAGCAAUAUUACGUUCU, the “self-splicing fitness (ln)” value is -0.967 ± 0.079 (30 °C) and -0.242 ± 0.074 (37 °C).
Turning to ACUGAGCAAUAUUACGAACU, the “self-splicing fitness (ln)” value was -1.92 ± 0.13 (30 °C) and -1.24 ± 0.16 (37 °C).
The like results for ACUGAGCAAUAUUACGAUAC were, in that order, -1.07 ± 0.29 and -1.96 ± 0.33.
On the same counts, the results for ACUGAGCAAUAUUACGCCUA are -2.23 ± 0.17 and -1.42 ± 0.18.
On the same counts, the results for ACUGAGCAAUAUUACGCUUA are -3.12 ± 0.38 and -1.88 ± 0.2.
As for ACUGAGCAAUAUUACGGCAC, the “self-splicing fitness (ln)” value was -3.97 ± 0.37 (30 °C) and -2.6 ± 0.29 (37 °C).
In the case of ACUGAGCAAUAUUACGGCCU, the “self-splicing fitness (ln)” value was -2.58 ± 0.23 (30 °C) and -2.12 ± 0.25 (37 °C).
In the case of ACUGAGCAAUAUUACGGGAC, the “self-splicing fitness (ln)” value (37 °C) was -1.43 ± 0.28.
Take ACUGAGCAAUAUUACGGGCC: the “self-splicing fitness (ln)” value was -2.33 ± 0.38 (30 °C) and -2.51 ± 0.23 (37 °C).
As to ACUGAGCAAUAUUACGGUAC, the “self-splicing fitness (ln)” value (30 °C) is -3.19 ± 0.48.
Regarding ACUGAGCAAUAUUACGGUGG, the “self-splicing fitness (ln)” value runs as follows: (30 °C) -3.61 ± 0.16; (37 °C) -2.37 ± 0.18.
Consider ACUGAGCAAUAUUACGGUUC, for which the “self-splicing fitness (ln)” value is, setting by setting: (30 °C) -3.46 ± 0.19; (37 °C) -2.08 ± 0.21.
In the case of ACUGAGCAAUAUUACGGUUU, the “self-splicing fitness (ln)” value is -3.46 ± 0.17 (30 °C) and -2.6 ± 0.11 (37 °C).
Consider ACUGAGCAAUAUUACGUAAA, for which the “self-splicing fitness (ln)” value (37 °C) is -2.33 ± 0.24.
Turning to ACUGAGCAAUAUUACGUAAU, the “self-splicing fitness (ln)” value was -3.47 ± 0.23 (30 °C) and -2.23 ± 0.22 (37 °C).
